T1: human desmoglein 2 (Dsg2) on cells (human, UniProt Q14126 50-1118)
T1 construct: whole, on cells; also called huma Dsg2; hDsg2
T1 sequence (looked up): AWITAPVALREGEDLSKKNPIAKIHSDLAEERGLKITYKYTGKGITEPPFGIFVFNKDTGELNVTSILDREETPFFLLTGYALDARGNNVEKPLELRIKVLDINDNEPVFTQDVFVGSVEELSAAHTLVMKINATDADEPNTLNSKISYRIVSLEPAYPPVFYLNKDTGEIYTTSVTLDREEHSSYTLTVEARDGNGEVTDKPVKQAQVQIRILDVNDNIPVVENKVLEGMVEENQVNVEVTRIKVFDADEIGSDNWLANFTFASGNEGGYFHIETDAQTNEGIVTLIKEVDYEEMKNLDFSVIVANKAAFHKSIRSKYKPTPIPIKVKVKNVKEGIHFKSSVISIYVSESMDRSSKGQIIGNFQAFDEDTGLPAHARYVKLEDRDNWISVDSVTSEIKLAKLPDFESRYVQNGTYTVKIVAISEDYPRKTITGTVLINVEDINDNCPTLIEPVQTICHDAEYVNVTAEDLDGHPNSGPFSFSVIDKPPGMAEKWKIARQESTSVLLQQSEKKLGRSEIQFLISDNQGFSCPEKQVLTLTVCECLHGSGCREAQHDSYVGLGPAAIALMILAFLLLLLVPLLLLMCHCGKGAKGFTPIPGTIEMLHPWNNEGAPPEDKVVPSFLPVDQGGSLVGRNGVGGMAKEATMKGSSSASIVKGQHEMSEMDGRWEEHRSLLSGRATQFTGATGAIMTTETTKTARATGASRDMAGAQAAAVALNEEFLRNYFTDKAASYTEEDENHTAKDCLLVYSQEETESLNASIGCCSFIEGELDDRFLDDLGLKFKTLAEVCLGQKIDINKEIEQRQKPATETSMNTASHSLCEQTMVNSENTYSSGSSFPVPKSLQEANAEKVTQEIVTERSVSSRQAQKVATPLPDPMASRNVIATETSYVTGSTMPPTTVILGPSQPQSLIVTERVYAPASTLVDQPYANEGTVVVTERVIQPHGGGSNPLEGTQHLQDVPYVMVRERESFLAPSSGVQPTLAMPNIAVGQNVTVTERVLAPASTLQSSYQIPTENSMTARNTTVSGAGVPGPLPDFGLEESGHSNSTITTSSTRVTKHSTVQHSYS


Biological target: T1, human desmoglein 2 (Dsg2) on cells
Experiment: legend of FIG. 5: Dsg2 domain scheme; immunoblot and immunostaining of A431 SCC cells
From the text: P, Pro-region; EC, Extracellular Domain; TM, Transmembrane; IA, Intracellular Anchoring, ICS, Intracellular Cadherin Segment; LD, Linker Domain; RUD, Repeat Unit Domain; TD, Terminal Domain. 10D2 recognizes EC1 while 6D8 recognizes EC4. For FIG. 5B and FIG. 5C, A431 SCC was immunoblotted (FIG. 5B) or immunostained (FIG. 5C) with mAbs 6D8 and 10D2.

binding result | Binder
binds | mAb 10D2 (antibody, V domains shown, Monoclonal antibody from a hybridoma; also called 10D2 Antibody; 10D2 mAb) VH: EVQLQQSGPELVNPGASVKMSCKASGYSFTSYILHWVKQKPGQGLEWIGYINPYNDATKYNEKFKGKATLTSDKSSSTAYMELSSVTSEDSAVYYCCSMITTAYWAYWGQGTLVTVSA VL: NIMMTQSPSSLTVSAGEKVTMSCKSSQSILYGSTQKNYLAWYQQKPGQSPKLLIYWASTRESGVPDRFTGSGSGTDFTLTISSVQAEDLAVYYCHQYLSSYTFGGGTKLEIK
binds | mAb 6D8 (antibody, V domains shown, Monoclonal antibody from a hybridoma; also called 6D8 Antibody; 6D8 mAb) VH: QIQLVQSGPELKKPGETVKISCKASGYTFTNYGMNWVKQAPGRGLKWMGWINTYTGNPTYADDFKGRFDFSLETSASTAYLQINNLKNEDMAIYFCARDRGNSFDYWGQGTTLTVSS VL: DIQMTQSPASLSVSVGETVTITCRASENIYSNLAWYQQKQGKSPQLLVYIAINLADGVPSRFSGSGSGTQYSLKINSLQSEDFGNYYCQHFWGTPRTFGGGTKLEIK

Source: patent publication US20240108651A1 (THOMAS JEFFERSON UNIVERSITY, published 2024)
